Data from patent US9920105B2, “Human ferritin-derived fusion polypeptide” (Kyungpook National University Industry-Academic Cooperation …, priority 2013, dated 2018).

T1: IL-4 receptor (Homo sapiens, UniProt P24394)
T1 sequence (P24394 26-825): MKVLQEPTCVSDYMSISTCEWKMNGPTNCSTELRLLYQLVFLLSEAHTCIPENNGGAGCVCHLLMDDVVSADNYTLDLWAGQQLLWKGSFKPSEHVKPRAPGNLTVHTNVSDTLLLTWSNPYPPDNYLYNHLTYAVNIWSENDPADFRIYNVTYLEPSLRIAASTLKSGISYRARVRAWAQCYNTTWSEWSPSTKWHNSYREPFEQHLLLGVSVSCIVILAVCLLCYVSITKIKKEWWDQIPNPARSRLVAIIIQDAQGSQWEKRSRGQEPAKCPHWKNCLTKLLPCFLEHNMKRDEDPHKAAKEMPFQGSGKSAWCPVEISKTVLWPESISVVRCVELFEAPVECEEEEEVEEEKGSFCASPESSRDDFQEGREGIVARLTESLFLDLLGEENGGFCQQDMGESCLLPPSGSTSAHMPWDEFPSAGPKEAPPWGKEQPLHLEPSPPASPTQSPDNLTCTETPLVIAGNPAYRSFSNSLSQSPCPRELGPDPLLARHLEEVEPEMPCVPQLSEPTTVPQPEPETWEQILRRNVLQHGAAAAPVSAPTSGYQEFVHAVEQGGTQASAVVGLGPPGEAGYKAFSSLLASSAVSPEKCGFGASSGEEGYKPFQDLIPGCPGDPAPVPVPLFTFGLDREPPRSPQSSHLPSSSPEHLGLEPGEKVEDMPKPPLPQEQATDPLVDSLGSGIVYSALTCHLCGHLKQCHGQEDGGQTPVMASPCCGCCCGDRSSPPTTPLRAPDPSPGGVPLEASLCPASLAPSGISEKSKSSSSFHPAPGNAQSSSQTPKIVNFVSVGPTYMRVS

B1: FTL-GRGDSP-AP1: ferritin having inserted GRGDSP and AP1 peptides (protein)
chain: MGRGDSPGGGSGMSSQIRQNYSTDVEAAVNSLVNLYLQASYTYLSLGFYFDRDDVALEGVSHFFRELAEEKREGYERLLKMQNQRGGRALFQDIKKPAEDEWGKTPDAMKAAMALEKKLNQALLDLHALGSARTDPHLCDFLETHFLDEEVKLIKKMGDHLTNLHRGSRKRLDRNGGPEAGLGEYLFERLTLKHD
modifications: left off: small tags and cut ends
notes: ferritin having inserted GRGDSP and AP1 peptides
B2: FTL-AP1_AP1: fusion polypeptide in which AP1S was additionally fused to N-terminal of FTL_GG-AP1S (protein)
chain: MRKRLDRNGGGSGMSSQIRQNYSTDVEAAVNSLVNLYLQASYTYLSLGFYFDRDDVALEGVSHFFRELAEEKREGYERLLKMQNQRGGRALFQDIKKPAEDEWGKTPDAMKAAMALEKKLNQALLDLHALGSARTDPHLCDFLETHFLDEEVKLIKKMGDHLTNLHRGSRKRLDRNGGPEAGLGEYLFERLTLKHD
modifications: left off: small tags and cut ends
B3: FTL-RGD-AP1: human ferritin light chain with inserted RGD and AP1 peptides (AP1 exchanged with RGD relative to FTL-AP1_RGD) (protein)
chain: MRGDGGGSGMSSQIRQNYSTDVEAAVNSLVNLYLQASYTYLSLGFYFDRDDVALEGVSHFFRELAEEKREGYERLLKMQNQRGGRALFQDIKKPAEDEWGKTPDAMKAAMALEKKLNQALLDLHALGSARTDPHLCDFLETHFLDEEVKLIKKMGDHLTNLHRGSRKRLDRNGGPEAGLGEYLFERLTLKHD
modifications: left off: small tags and cut ends
B4: GG-AP1S: human ferritin light chain with AP1S (RKRLDRN) inserted in GG cassette of the fourth loop; named FTL-AP1 in Examples 6-9 (protein)
chain: MSSQIRQNYSTDVEAAVNSLVNLYLQASYTYLSLGFYFDRDDVALEGVSHFFRELAEEKREGYERLLKMQNQRGGRALFQDIKKPAEDEWGKTPDAMKAAMALEKKLNQALLDLHALGSARTDPHLCDFLETHFLDEEVKLIKKMGDHLTNLHRGSRKRLDRNGGPEAGLGEYLFERLTLKHD
modifications: left off: small tags and cut ends

What was measured:
[1] = system: A549 cells overexpressing IL-4 receptor; assay: Cell binding test using confocal microscope; type: cell-based; conditions: 400 nM, 4° C., 20 min, FIG. 6
Protocol: First, A549 cells were grown to about 80% confluence in a 100 mm-diameter plate. The plated cells were washed twice with PBS, and detached from the plate using Trypsin/EDTA. Then, 2×10^5/100 ul cells were suspended in PBS containing 1% bovine serum albumin (BSA), and incubated at 4° C. for 30 min. After washing twice with PBS, the ferritin without AP1 insertion and the AP1-inserted ferritin were diluted to 400 nM in buffer (20 mM Tris, 150 mM NaCl, 180 mM Histidine), and then allowed to bind at 4° C. for 20 min. After washing twice with PBS, the ferritin light chain antibody (D-18, sc-14420) was diluted to 1:400 in PBS buffer containing 1% BSA, and incubated in ice for 30 min. After washing twice with PBS, Alexa Fluor 488 donkey anti-goat IgG (H+L) antibody was diluted to 1:200 in PBS containing 1% BSA, and then incubated in ice for 30 min. After washing twice with PBS, 4% paraformaldehyde (PFA) was added for cell fixation, and cells in suspension were added in the 8-well slide chamber. The cells were attached in the chamber by centrifugation at 1000 rpm for 10 min.
After washing twice with PBS, the cells were stained by incubation with 4′,6-diamidino-2-phenylindole (DAPI) for 3 min in dark place, mounted in antifade reagent to close a cover glass, and analyzed by Z-stack type confocal microscopy.

[2] = system: A549 cells overexpressing IL-4 receptor; assay: Cell binding test using flow cytometry (FACS); type: cell-based, human
Protocol: First, A549 cells were grown to about 80% confluence in a 100 mm-diameter plate. The plated cells were washed twice with PBS, and detached from the plate using Trypsin/EDTA. Then, 2×10^5/100 μl cells were suspended in PBS containing 1% bovine serum albumin (BSA), and incubated at 4° C. for 30 min. […] The above blocking procedure was performed on one group, and was not performed on the other group, and the following experiment was performed on both groups. After washing twice with PBS, the ferritin without AP1 insertion and the AP1-inserted ferritin were diluted to 400 nM in buffer (20 mM Tris, 150 mM NaCl, 180 mM Histidine), and then allowed to bind at 4° C. for 20 min. After washing twice with PBS, the ferritin light chain antibody (D-18, sc-14420) was diluted to 1:400 in PBS buffer containing 1% BSA, and incubated in ice for 30 min. After washing twice with PBS, Alexa Fluor 488 donkey anti-goat IgG (H+L) antibody (invitrogen, USA) was diluted to 1:200 in PBS containing 1% BSA, and incubated in ice for 30 min. After washing twice with PBS, the cells were suspended in 500 ul PBS, and analyzed with FACS.
First, A549 cells were grown to about 80% confluence in a 100 φ plate. The plated cells were washed twice with PBS, and detached from the plate using Trypsin/EDTA. […] After washing twice with PBS, the cells were suspended in 500 ul PBS, and then analyzed with FACS.

integrin alphavbeta3 = integrin alphavbeta3 (Homo sapiens, UniProt P05106+P06756); assay: SPR analysis of binding affinity to integrin alphavbeta3; conditions: FIG. 16
Protocol: Then, 40 mM N-(3-dimethylaminopropyl)-N′-ethylcarbodiimide hydrochloride (EDC)/10 mM N-hydroxy-succinimide (NHS) were allowed to flow over each channel (left, right) of carboxymethyl dextran chip for 7 min for surface activation, and then 200 ul of the prepared alphavbeta3 protein was allowed to flow over the left channel for 7 min for immobilization. Here, the right channel was used as a reference channel. In the two channels, left channel and right channel, 1M ethanolamine (pH 8.5) solution was allowed to flow over the unreacted surface for 7 min for blocking, so as to reduce non-specific adsorption thereof. All test procedures were conducted at a temperature of 25° C. and the flow rate was 25 ul/min.
The buffer (10 mM Hepes pH 7.4, 150 mM NaCl, 180 mM Histidine, 1 mM MgCl2, 0.005% Tween 20) was used through filtering and degassing. The wild type ferritin and the RGD-inserted ferritins were allowed to flow over at concentrations of 0.65 nM, 1.3 nM, 2.6 nM, 5.2 nM, 10.4 nM, 20.8 nM, and 41.6 nM, respectively, for 3 min, and the same buffer was allowed to flow over for 3 min. For regeneration, 2 M NaCl was allowed to flow over for 1 min to wash the proteins remaining without dissociation. […]
(§1) In the binding graph, the RU value expressing the amount of bound protein was measured by subtracting the blank (buffer) value and reference channel (right channel) value, using Scrubber software.

IL-4 receptor = molecular target: T1, IL-4 receptor; assay: Surface plasmon resonance (SPR) analysis of binding affinity to immobilised IL-4 receptor; conditions: Table 4
Protocol: Here, the right channel was used as a reference channel. In the two channels, left channel and right channel, 1M ethanolamine (pH 8.5) solution was allowed to flow over the unreacted surface for 7 min for blocking, so as to reduce non-specific adsorption thereof. All test procedures were conducted at a temperature of 25° C. and the flow rate was 25 ul/min.
The buffer (20 mM Tris-HCl pH 8.0, 150 mM NaCl, 180 mM Histidine, 62.5 ug/ml BSA, 0.005% Tween 20) was used through filtering and degassing. The wild type ferritin and the AP1-inserted ferritins were allowed to flow over at concentrations of 0.65 nM, 1.3 nM, 2.6 nM, 5.2 nM, 10.4 nM, 20.8 nM, and 41.6 nM for 3 min, and the same buffer was allowed to flow over for 3 min. For regeneration, 2 M NaCl was allowed to flow over for […] to wash the proteins remaining without dissociation. Specific binding values, obtained by subtracting the right channel value from the left channel value, in the concentration ranging from 0.65 nM to 10.4 nM, were plotted on a graph.
AP1 peptide was allowed to flow over at concentrations of 3.125 uM, 6.25 uM, 12.5 uM, 25 uM, and 50 uM for 3 min, and the same buffer was allowed to flow over for 3 min. For regeneration, 2 M NaCl was allowed to flow over for 1 min to wash the proteins remaining without dissociation. Specific binding values, obtained by subtracting the right channel value from the left channel value, in the respective concentrations, were plotted on a graph (see FIG. 8).
as §1, with “software. The KD value was obtained from the binding RU (Req) values measured at the respective concentrations using KaleidaGraph software.” for “software.”
The experiment was conducted like in example <5-1>, and RU values shown for concentrations ranging from 0.65 nM to 41.6 nM were plotted on a graph using GraphPad prism 4 program.
For comparison of binding affinity between FTL-AP1 and FTL-AP1_AP1, surface plasmon resonance analysis was conducted. Analysis was conducted by the same method as in Example <5-1>. The binding of FTL-AP1 was analyzed at concentrations of 0.26 nM, 1.041 nM, 2.083 nM, and 4.166 nM, respectively, and the binding of FTL-AP1_AP1 was analyzed at concentrations of 0.520 nM, 1.041 nM, 2.083 nM, and 4.166 nM, respectively.

Sequence of integrin alphavbeta3 (P06756 31-1048): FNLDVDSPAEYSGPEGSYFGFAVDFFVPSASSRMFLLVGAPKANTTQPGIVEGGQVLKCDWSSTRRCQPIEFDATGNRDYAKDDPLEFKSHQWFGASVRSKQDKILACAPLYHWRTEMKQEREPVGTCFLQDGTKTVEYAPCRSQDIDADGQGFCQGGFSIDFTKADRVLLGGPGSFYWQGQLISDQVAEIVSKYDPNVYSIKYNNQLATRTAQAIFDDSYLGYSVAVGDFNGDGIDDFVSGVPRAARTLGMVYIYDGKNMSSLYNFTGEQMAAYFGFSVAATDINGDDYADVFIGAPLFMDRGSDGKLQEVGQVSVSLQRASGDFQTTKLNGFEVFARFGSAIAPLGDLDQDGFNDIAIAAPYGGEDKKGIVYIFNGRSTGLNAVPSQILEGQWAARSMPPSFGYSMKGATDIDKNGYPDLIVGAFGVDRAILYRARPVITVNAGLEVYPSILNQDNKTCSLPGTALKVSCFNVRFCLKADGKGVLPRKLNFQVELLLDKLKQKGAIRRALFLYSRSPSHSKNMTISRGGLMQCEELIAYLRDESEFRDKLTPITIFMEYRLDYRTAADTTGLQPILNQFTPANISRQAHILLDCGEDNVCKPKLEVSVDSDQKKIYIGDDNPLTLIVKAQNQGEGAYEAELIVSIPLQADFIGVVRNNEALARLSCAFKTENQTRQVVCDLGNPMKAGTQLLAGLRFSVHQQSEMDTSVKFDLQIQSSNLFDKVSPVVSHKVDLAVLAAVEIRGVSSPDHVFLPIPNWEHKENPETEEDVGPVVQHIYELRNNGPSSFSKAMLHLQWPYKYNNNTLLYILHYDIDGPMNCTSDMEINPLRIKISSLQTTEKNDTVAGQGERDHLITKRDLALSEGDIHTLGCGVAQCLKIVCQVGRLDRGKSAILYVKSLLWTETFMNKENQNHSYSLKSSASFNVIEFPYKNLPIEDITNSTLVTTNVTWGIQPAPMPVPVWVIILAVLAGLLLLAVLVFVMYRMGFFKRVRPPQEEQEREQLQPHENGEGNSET
Sequence of integrin alphavbeta3 (P05106 27-788): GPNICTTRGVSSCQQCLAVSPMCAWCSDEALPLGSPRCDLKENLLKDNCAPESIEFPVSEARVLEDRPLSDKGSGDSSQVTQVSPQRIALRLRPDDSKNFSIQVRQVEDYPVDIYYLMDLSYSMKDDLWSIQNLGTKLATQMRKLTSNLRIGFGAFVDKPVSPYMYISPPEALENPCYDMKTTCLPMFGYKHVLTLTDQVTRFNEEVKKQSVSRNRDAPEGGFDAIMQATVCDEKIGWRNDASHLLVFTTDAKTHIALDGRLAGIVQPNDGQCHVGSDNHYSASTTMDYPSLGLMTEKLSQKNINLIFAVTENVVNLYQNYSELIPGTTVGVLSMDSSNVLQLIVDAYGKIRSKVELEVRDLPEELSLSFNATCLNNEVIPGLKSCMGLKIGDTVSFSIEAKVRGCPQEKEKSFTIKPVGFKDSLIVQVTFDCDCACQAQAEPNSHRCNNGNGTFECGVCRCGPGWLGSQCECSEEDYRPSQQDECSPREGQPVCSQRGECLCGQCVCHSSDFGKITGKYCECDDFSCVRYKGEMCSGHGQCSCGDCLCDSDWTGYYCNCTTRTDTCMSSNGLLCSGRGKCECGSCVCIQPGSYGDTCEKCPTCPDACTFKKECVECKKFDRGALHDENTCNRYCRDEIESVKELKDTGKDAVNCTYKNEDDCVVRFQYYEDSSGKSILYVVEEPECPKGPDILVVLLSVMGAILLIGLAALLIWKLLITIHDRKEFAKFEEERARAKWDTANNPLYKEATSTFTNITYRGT

Molecule | binding to integrin alphavbeta3 (integrin alphavbeta3) | Koff (IL-4 receptor) | Kon (IL-4 receptor) | other results
wild type ferritin: human ferritin light chain (SEQ ID NO: 1) without AP1 insertion, control cage [reference compound] | – | – | – | binding to A549 cells / cell membrane (confocal microscopy) [1]: did not bind to A549 cells; binding to IL-4 receptor in A549 cells (FACS) ([2]; 400 nM, 4° C., 20 min, FIG. 5): did not bind to IL-4 receptor
B1 | bound to integrin alphavbeta3 in a concentration-dependent manner | – | – | –
B2 | – | 3.8 × 10^−5 S^−1 | 8.26 × 10^5 M^−1S^−1 | amount bound to IL-4 receptor compared with FTL-AP1 (FACS) ([2]; at 400 nM and 200 nM, FIG. 13): larger amount than FTL-AP1
B3 | bound to integrin alphavbeta3 in a concentration-dependent manner | – | – | –
B4 | – | 1.25 ± 0.4 × 10^−3 S^−1 | 1.22 ± 0.64 × 10^6 M^−1S^−1 | –
